The values below come from US20190338048A1.

The term Kd denotes the constant that tells how readily two partners part at equilibrium.

Assay [1] deals with Pertuzumab kappa light chain V133G_S176D_T180E (L2), N-terminal HA tag. The experiment in a line: LCCA, SPR of light chain tags.
Assay [2] concerns the target CAT-2200 lambda light chain S176K_Y178R (L1), N-terminal FLAG tag. The experiment in a line: LCCA, SPR of light chain tags.
Assay [3] concerns the target CAT-2200 lambda light chain S176K_Y178L (L1), N-terminal FLAG tag. The experiment in a line: LCCA, SPR of light chain tags.
For assay [4], the target named is Pertuzumab kappa light chain V133G_S176D_T180E (L2), N-terminal HA tag. The experiment in a line: LCCA, SPR of light chain tags. The source holds these as a separate data set.
For assay [5] the target is unchanged. Kind of assay: LCCA, SPR of light chain tags. This is another data set of the same source.
Assay [6] has the same target. Kind of assay: LCCA, SPR of light chain tags. This is another data set of the same source.
The target of assay [7] is Pertuzumab kappa light chain Q124E_V133G_S176D_T178D. The experiment in a line: LCCA.
For assay [8], the target named is Pertuzumab kappa light chain Q124K_L135A_T178R. Kind of assay: LCCA.
The target in assay [9] is CAT-2200 lambda light chain K129T_V133D. Kind of assay: LCCA, SPR.
The target of assay [10] is Pertuzumab kappa light chain S131K_V133G_S176R_T178A. Kind of assay: LCCA, SPR.
The target of assay [11] is Pertuzumab kappa light chain S131R_V133G_S176R_T178A. Kind of assay: LCCA, SPR.
Assay [12] addresses CAT-2200 lambda light chain K129T_V133D. The experiment in a line: LCCA, SPR. This is another data set of the same source.
Assay [13] deals with Pertuzumab kappa light chain Q124R_Q160R_S176A_T178R. Kind of assay: LCCA, SPR.
The target of assay [14] is Pertuzumab kappa light chain Q124R_S176A_T178R. Kind of assay: LCCA, SPR.
The target of assay [15] is Recombinant human IL-17A (human) (UniProt Q16552). The experiment in a line: SPR, IL-17A immobilised, purified Fab injected.
Chain of Recombinant human IL-17A (human) (Q16552 20-155 limits assumed): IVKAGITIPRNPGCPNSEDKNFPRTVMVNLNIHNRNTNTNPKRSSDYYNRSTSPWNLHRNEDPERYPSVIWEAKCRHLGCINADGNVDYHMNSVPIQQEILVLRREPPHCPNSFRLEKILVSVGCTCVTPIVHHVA
Assay [16] shares this target. Kind of assay: SPR. A general note: In SPR one partner is held on a chip, and binding of the other changes the refractive index at the surface.
Assay [17] concerns the target CAT-2200 heavy chain Fab construct (H1) S186R. Kind of assay: LCCA, SPR tag read-out.
The target in assay [18] is CAT-2200 heavy chain Fab construct (H1) Q39K. Kind of assay: LCCA, SPR tag read-out.
Assay [19] addresses CAT-2200 lambda light chain S176K_Y178K (L1), N-terminal FLAG tag. The experiment in a line: LCCA, SPR of light chain tags.
Assay [20] concerns the target CAT-2200 lambda light chain T116F_S176F (L1), N-terminal FLAG tag. Kind of assay: LCCA, SPR of light chain tags.
For assay [21], the target named is Pertuzumab kappa light chain V133A (L2), N-terminal HA tag. Kind of assay: LCCA, SPR of light chain tags.
Assay [22] has as its target Pertuzumab kappa light chain S121K_Q124E_V133D. Kind of assay: LCCA, SPR tag read-out.
Assay [23] deals with Pertuzumab kappa light chain S131R_V133S_L135K. The experiment in a line: LCCA, SPR.
In assay [24] the target is Pertuzumab light chain (kappa) V133G_S176D_T180E, HA-tagged. The experiment in a line: LCCA.
Assay [25] deals with Pertuzumab light chain (kappa) V133G_S176D_T178E, HA-tagged. Kind of assay: LCCA.
The target in assay [26] is Pertuzumab light chain (kappa) V133G_S176D_T180E, HA-tagged. Kind of assay: LCCA. The source holds these as a separate data set.
For assay [27], the target named is Pertuzumab light chain (kappa) V133G_S176D_T178E, HA-tagged. The experiment in a line: LCCA. This is another data set of the same source.
For assay [28], the target named is Pertuzumab kappa light chain Q124R_L135A_Q160K_T178R. The experiment in a line: LCCA.
The target of assay [29] is CAT-2200 Fab heavy chain S188K. Kind of assay: LCCA.
Assay [30] addresses Pertuzumab kappa light chain S121K_Q124R_T178R. Kind of assay: LCCA.
In assay [31] the target is CAT-2200 lambda light chain S122D_K129T_S180E. The experiment in a line: LCCA.
Assay [32] has as its target Pertuzumab kappa light chain S121K_Q124R_Q160K_T178R. Kind of assay: LCCA.
In assay [33] the target is Pertuzumab kappa light chain P44F_Q124R_T178R. The experiment in a line: LCCA, SPR tag read-out.
In assay [34] the target is Pertuzumab kappa light chain P44F_V133G_S176D_T180E. Kind of assay: LCCA, SPR tag read-out.
Assay [35] addresses CAT-2200 lambda light chain E124Q_T131R. Kind of assay: LCCA, SPR tag read-out.
Assay [36] has as its target Pertuzumab kappa light chain P44F_V133G_S176D_T180E. Kind of assay: LCCA, SPR tag read-out. The source holds these as a separate data set.
In assay [37] the target is Pertuzumab kappa light chain V133G_L135W_S176D_T180E. Kind of assay: LCCA, SPR tag read-out.
Assay [38] addresses CAT-2200 lambda light chain E124Q_T131K. The experiment in a line: LCCA, SPR.
Assay [39] addresses Pertuzumab kappa light chain V133G_S176D_T180E. Kind of assay: LCCA, SPR.
Assay [40] addresses Pertuzumab kappa light chain V133G_S176D_T178E. Kind of assay: LCCA, SPR.
In assay [41] the target is Pertuzumab kappa light chain V133G_S176D_T180E. Kind of assay: LCCA, SPR. This is another data set of the same source.
The target of assay [42] is Pertuzumab kappa light chain V133G_S176D_T178E. Kind of assay: LCCA, SPR. The source holds these as a separate data set.
The target of assay [43] is Pertuzumab kappa light chain P44F_S131R_V133G_S176R. Kind of assay: LCCA, SPR tag read-out.
Assay [44] deals with CAT-2200 lambda light chain E124Q_T131R. The experiment in a line: LCCA, SPR.
Assay [45] deals with Pertuzumab kappa light chain V133G_L135W_S176D_T180E. Kind of assay: LCCA, SPR tag read-out. The source holds these as a separate data set.

Read-outs that look alike come from different tables or passages of the source.

As for “Pertuzumab Fab heavy chain L124R_Q179K (H2), ABD2-His6 tagged”, the H2L2:H2L1 normalized median scalar value ln(r1/f1) came to 0.67 in [1], 0.63 in [4], 0.75 in assay [5] and 0.79 in assay [6]. Moreover, the figures for the H2L2:H2L1 normalized median ratio in assay [2] and in [3] were 31% and 34%, respectively.

Pertuzumab Fab heavy chain L124K_S188K yielded an H2L2:H2L1 median scalar value in assay [7] of -0.29 ln.

In assay [8], “Pertuzumab Fab heavy chain L143E_K145T_Q179E_S188F_V190F” showed an H2L2:H2L1 median scalar value of -0.51 ln.

As for “Pertuzumab Fab heavy chain L124E_K145T_Q179E_S186I_S188W”, the H2L2:H2L1 normalized median ratio in assay [9] came to 16%; in assay [10] it was 84%; in assay [11], 88%; in [12] it was 12%. For the same substance, the H2L2:H2L1 normalized median scalar value ln(r1/f1) in [10] is 1.69; in assay [11], 2.04.

As for “Pertuzumab Fab heavy chain L143E_K145T_Q179E_S186I_S188W”, the results for the H2L2:H2L1 normalized median scalar value ln(r1/f1) in assay [13] and in assay [14] were 1.42 and 2.8, respectively.

Take CAT-2200 Fab, H1 S186R / L1 K129T_S180E: in assay [15], the dissociation constant Kd was 0.26 nM. Also, in assay [16], the Change in KD of H1L1 Fab vs wild type (log(KD) units) is -0.088.

As to “CAT-2200 lambda light chain construct (L1) K129T_S180E, FLAG-tagged”, the H1L1:H1L2 normalized median scalar value ln(r1/f1) in assay [17] is 1.94.

Substance Pertuzumab Fab heavy chain L124R_S188K returned an H2L2:H2L1 median scalar value in assay [7] of 0.54 ln.

Regarding “CAT-2200 lambda light chain construct (L1) Q38D, FLAG-tagged”, the H1L1:H1L2 normalized median scalar value ln(r1/f1) in assay [18] was 0.91.

With “Pertuzumab Fab heavy chain L124R_S186R (H2), ABD2-His6 tagged”, the H2L2:H2L1 normalized median scalar value ln(r1/f1) came to 0.98 in [1], 1.21 in assay [4], 1.06 in assay [5] and 1.17 in [6]. The H2L2:H2L1 normalized median ratio in [19] worked out at 26%; in assay [3], 27%.

Turning to “Pertuzumab Fab heavy chain S188F (H2), ABD2-His6 tagged”, the results for the H2L2:H2L1 normalized median ratio in assay [20] and in assay [21] were 28% and 72%, respectively. In [21], this substance had an H2L2:H2L1 normalized median scalar value ln(r1/f1) of 0.93.

Regarding CAT-2200 Fab, H1 Q179K / L1 K129T_S180E, the Kd in [15] was 0.24 nM. For the same substance, the Change in KD of H1L1 Fab vs wild type (log(KD) units) in [16] was -0.056.

For “Pertuzumab Fab heavy chain L143I_S186K_K228D”, the H2L2:H2L1 median scalar value in assay [22] was -0.18 ln(ratio).

In the case of “Pertuzumab Fab heavy chain L124E_K145T_S186E”, the figures for the H2L2:H2L1 normalized median ratio in assay [9] and in [23] were 20% and 80%, respectively. The substance further showed an H2L2:H2L1 normalized median scalar value ln(r1/f1) in assay [23] of 1.38.

With “Pertuzumab heavy chain Fab construct L124R_S186K”, the H2L2:H2L1 normalized median scalar value ln(r1/f1) in [24] worked out at 1.47; in assay [25], 1.12; in [26] it was 1.32; in assay [27] it was 1.22.

On to “CAT-2200 lambda light chain construct (L1) Q38E, FLAG-tagged”, for which, in assay [18], the H1L1:H1L2 normalized median scalar value ln(r1/f1) was determined as 0.61.

As for “Pertuzumab Fab heavy chain L143E_K145T_V190F”, in assay [28], the H2L2:H2L1 median scalar value was -0.23 ln.

Consider “CAT-2200 lambda light chain K129T_S176E_Y178E”, for which the H1L1:H1L2 median scalar value (ln(H1L1:H1L2)) in assay [29] stood at 1.8.

For the substance “Pertuzumab Fab heavy chain L143E_K145T_K228D”, the H2L2:H2L1 median scalar value in assay [30] was 2.19 ln; in [32] it was -0.24 ln. Also, the values for the H2L2:H2L1 normalized median ratio in assay [30] and in assay [31] were 72% and 28%, respectively.

On to “Pertuzumab Fab heavy chain L143E_K145T_Q179E_S188W”, for which the results for the H2L2:H2L1 normalized median ratio in assay [9] and in assay [13] were 15% and 85%, respectively. For the same substance, the values for the H2L2:H2L1 normalized median scalar value ln(r1/f1) in assay [13] and in assay [14] were 1.71 and 2.83, respectively.

For the substance “Pertuzumab Fab heavy chain L45P_L143E_K145T_Q179E”, in [33], the H2L2:H2L1 median scalar value is 3.81 ln(ratio) and the H2L2:H2L1 normalized median ratio came out at 98%.

In the case of “Pertuzumab Fab heavy chain L45P_L124R_Q179K”, the H2L2:H2L1 median scalar value in assay [34] was 1.45 ln(ratio); in assay [36], 1.84 ln(ratio). The H2L2:H2L1 normalized median ratio in assay [34] was found to be 81%; in assay [35], 14%; in assay [36], 86%.

In the case of Pertuzumab Fab heavy chain L124R_S186R, in [37], the H2L2:H2L1 median scalar value was 0.23 ln(ratio). Further, the H2L2:H2L1 normalized median ratio in assay [38] turned out to be 26%. The H2L2:H2L1 normalized median scalar value ln(r1/f1) is 1.5 in assay [39], 1.04 in assay [40], 1.47 in assay [41] and 1.18 in assay [42].

As to “Pertuzumab Fab heavy chain L124E_K145T_Q179E_S188W”, the H2L2:H2L1 normalized median ratio in assay [9] is 9%; in [10], 91%; in [11] it was 96%; in assay [12], 4%. Moreover, the H2L2:H2L1 normalized median scalar value ln(r1/f1) in assay [10] was determined as 2.31; in assay [11] it was 3.12.

In the case of “Pertuzumab Fab heavy chain L45P_L124E_K145T_Q179E”, in [43], the H2L2:H2L1 median scalar value is 3.9 ln(ratio) and the H2L2:H2L1 normalized median ratio is 97%.

As for CAT-2200 lambda light chain S176E_Y178E, the H1L1:H1L2 median scalar value (ln(H1L1:H1L2)) in [29] worked out at 1.01.

Turning to Pertuzumab Fab heavy chain S186K_K228D, the H2L2:H2L1 median scalar value in assay [22] is -0.5 ln(ratio).

For Pertuzumab Fab heavy chain L124R_S186K, the H2L2:H2L1 median scalar value in assay [37] and in assay [45] was 0 ln(ratio) in each case. The H2L2:H2L1 normalized median ratio in [38] is 25%; in [44], 21%. In addition, the H2L2:H2L1 normalized median scalar value ln(r1/f1) in [39] came to 1.47; in [40], 1.12; in assay [41], 1.32; in [42] it was 1.22.
